Among the data in PMC12102759 (2025) are screen value values, retold here.

B1: AMOTL2 peptide 66-81 (Angiomotin-like protein 2), 16-mer library wild type / TNKS ANK (TNKS 12 ANK repeats, residues 174-649) (parent complex)
chain 1: LQQATRQEPQGQEHQG
chain 2: TGVPAVSGALRELLEACRNGDVSRVKRLVDAANVNAKDMAGRKSSPLHFAAGFGRKDVVEHLLQMGANVHARDDGGLIPLHNACSFGHAEVVSLLLCQGADPNARDNWNYTPLHEAAIKGKIDVCIVLLQHGADPNIRNTDGKSALDLADPSAKAVLTGEYKKDELLEAARSGNEEKLMALLTPLNVNCHASDGRKSTPLHLAAGYNRVRIVQLLLQHGADVHAKDKGGLVPLHNACSYGHYEVTELLLKHGACVNAMDLWQFTPLHEAASKNRVEVCSLLLSHGADPTLVNCHGKSAVDMAPTPELRERLTYEFKGHSLLQAAREADLAKVKKTLALEIINFKQPQSHETALHCAVASLHPKRKQVTELLLRKGANVNEKNKDFMTPLHVAAERAHNDVMEVLHKHGAKMNALDTLGQTALHRAALAGHLQTCRLLLSYGSDPSIISLQGFTAAQMGNEAVQQILSESTPIRTSD
B2: AMOTL2 peptide 64-79 (Angiomotin-like protein 2), 16-mer library wild type / TNKS ANK (TNKS 12 ANK repeats, residues 174-649) (parent complex)
chain 1: QVLQQATRQEPQGQEH
chain 2: B1 chain 2

One test covers variants of B1. Put plainly: proteomic peptide phage display deep mutational scan (ProP-PD DMS): M13 P8 16-mer library selected against immobilised GST-tagged bait for four days (rounds), NGS of the eluted pools per day and pseudo-replica; bait immobilised on MaxiSorp plates (10 µg), library pre-cleared on GST, 2 h binding at 4 °C, five washes; one round per day, days 1-4; value from days 2 and 3.
Turning to chain 1 LQQTTRQEPQGQEHQG [chain 1 A4T], the screen value is 0.000212 average fractional NGS count over selection days 2 and 3 (reads of this peptide / all reads for the bait, averaged over ….
On the same count and under the same terms, under chain 1 LQQVTRQEPQGQEHQG [chain 1 A4V] stands 0.000321 average fractional NGS count over selection days 2 and 3 (reads of this peptide / all reads for the bait, averaged over …; under chain 1 LQQATRQEPIGQEHQG [chain 1 Q10I], 0.000713 average fractional NGS count over selection days 2 and 3 (reads of this peptide / all reads for the bait, averaged over ….
Regarding chain 1 LQQATRQEPLGQEHQG [chain 1 Q10L], the screen value is 0.00347 average fractional NGS count over selection days 2 and 3 (reads of this peptide / all reads for the bait, averaged over ….
As to chain 1 LQQATRQEPQGQEHAG [chain 1 Q15A], the screen value is 0.00403 average fractional NGS count over selection days 2 and 3 (reads of this peptide / all reads for the bait, averaged over ….
The same measure, in the same setting: under chain 1 LQQATRQEPQGQAHQG [chain 1 E13A] stands 0.000224 average fractional NGS count over selection days 2 and 3 (reads of this peptide / all reads for the bait, averaged over ….
Still for that read-out and setting: the figure for chain 1 TQQATRQEPQGQEHQG [chain 1 L1T] is 0.000919 average fractional NGS count over selection days 2 and 3 (reads of this peptide / all reads for the bait, averaged over …; for chain 1 LVQATRQEPQGQEHQG [chain 1 Q2V] it is 0.000551 average fractional NGS count over selection days 2 and 3 (reads of this peptide / all reads for the bait, averaged over …; for chain 1 LQQATRQEPQGQEIQG [chain 1 H14I] it is 0.000314 average fractional NGS count over selection days 2 and 3 (reads of this peptide / all reads for the bait, averaged over ….
As to chain 1 LQQATRQEPQGQEVQG [chain 1 H14V], the screen value is 0.00237 average fractional NGS count over selection days 2 and 3 (reads of this peptide / all reads for the bait, averaged over ….
The same measure, in the same setting: under chain 1 LQTATRQEPQGQEHQG [chain 1 Q3T] stands 0.000102 average fractional NGS count over selection days 2 and 3 (reads of this peptide / all reads for the bait, averaged over ….

The next test covers variants of B2. Described as above.
Consider chain 1 QVLQQATRQEPYGQEH [chain 1 Q12Y], for which the screen value is 0.0011 average fractional NGS count over selection days 2 and 3 (reads of this peptide / all reads for the bait, averaged over ….
Consider chain 1 QVLQQATRQEPNGQEH [chain 1 Q12N], for which the screen value is 0.000885 average fractional NGS count over selection days 2 and 3 (reads of this peptide / all reads for the bait, averaged over ….
For chain 1 QVLQQATRQEPLGQEH [chain 1 Q12L], the screen value is 0.00049 average fractional NGS count over selection days 2 and 3 (reads of this peptide / all reads for the bait, averaged over ….
Take chain 1 QVLQQATRQEPTGQEH [chain 1 Q12T]: the screen value was 0.0005 average fractional NGS count over selection days 2 and 3 (reads of this peptide / all reads for the bait, averaged over ….
In the case of chain 1 QVLQQATRQEPMGQEH [chain 1 Q12M], the screen value is 0.00046 average fractional NGS count over selection days 2 and 3 (reads of this peptide / all reads for the bait, averaged over ….
Still for that read-out and setting: under chain 1 QVLQQATRQEPSGQEH [chain 1 Q12S] stands 0.000155 average fractional NGS count over selection days 2 and 3 (reads of this peptide / all reads for the bait, averaged over ….
On the same count and under the same terms, the figure for chain 1 QVLQQATRQEPEGQEH [chain 1 Q12E] is 0.000439 average fractional NGS count over selection days 2 and 3 (reads of this peptide / all reads for the bait, averaged over ….
The same measure, in the same setting: under chain 1 QVLQQATRQEPIGQEH [chain 1 Q12I] stands 0.00433 average fractional NGS count over selection days 2 and 3 (reads of this peptide / all reads for the bait, averaged over …; under chain 1 QVLQQATRQEPDGQEH [chain 1 Q12D], 0.000551 average fractional NGS count over selection days 2 and 3 (reads of this peptide / all reads for the bait, averaged over ….
Take chain 1 QVLQQATRQEPGGQEH [chain 1 Q12G]: the screen value was 0.000392 average fractional NGS count over selection days 2 and 3 (reads of this peptide / all reads for the bait, averaged over ….
The same measure, in the same setting: under chain 1 QVLQQATRQEPQGQEA [chain 1 H16A] stands 0.00111 average fractional NGS count over selection days 2 and 3 (reads of this peptide / all reads for the bait, averaged over …; under chain 1 QVLQQATRQEPQGQEL [chain 1 H16L], 0.000215 average fractional NGS count over selection days 2 and 3 (reads of this peptide / all reads for the bait, averaged over ….
With chain 1 QVLQQATRQEPQGQES [chain 1 H16S], the screen value was 0.000142 average fractional NGS count over selection days 2 and 3 (reads of this peptide / all reads for the bait, averaged over ….
With chain 1 QVLQQATRQEPQGQED [chain 1 H16D], the screen value was 0.000297 average fractional NGS count over selection days 2 and 3 (reads of this peptide / all reads for the bait, averaged over ….
On to chain 1 QVLQQATRQEPQGQEW [chain 1 H16W], for which the screen value was 0.000565 average fractional NGS count over selection days 2 and 3 (reads of this peptide / all reads for the bait, averaged over ….
With chain 1 QVLQQATRQEPQGQEV [chain 1 H16V], the screen value is 0.000284 average fractional NGS count over selection days 2 and 3 (reads of this peptide / all reads for the bait, averaged over ….
For the variant chain 1 QVLQQATRQEPQGQEP [chain 1 H16P], the screen value was 0.000313 average fractional NGS count over selection days 2 and 3 (reads of this peptide / all reads for the bait, averaged over ….
On the same count and under the same terms, under chain 1 QQLQQATRQEPQGQEH [chain 1 V2Q] stands 0.000414 average fractional NGS count over selection days 2 and 3 (reads of this peptide / all reads for the bait, averaged over …; under chain 1 QHLQQATRQEPQGQEH [chain 1 V2H], 0.00146 average fractional NGS count over selection days 2 and 3 (reads of this peptide / all reads for the bait, averaged over …; under chain 1 QFLQQATRQEPQGQEH [chain 1 V2F], 0.000314 average fractional NGS count over selection days 2 and 3 (reads of this peptide / all reads for the bait, averaged over ….
On the same count and under the same terms, the figure for chain 1 QLLQQATRQEPQGQEH [chain 1 V2L] is 0.0017 average fractional NGS count over selection days 2 and 3 (reads of this peptide / all reads for the bait, averaged over ….
Same read-out and setting: under chain 1 QGLQQATRQEPQGQEH [chain 1 V2G] stands 0.000586 average fractional NGS count over selection days 2 and 3 (reads of this peptide / all reads for the bait, averaged over ….
For chain 1 QALQQATRQEPQGQEH [chain 1 V2A], the screen value is 0.00302 average fractional NGS count over selection days 2 and 3 (reads of this peptide / all reads for the bait, averaged over ….
Same read-out and setting: under chain 1 QWLQQATRQEPQGQEH [chain 1 V2W] stands 0.00102 average fractional NGS count over selection days 2 and 3 (reads of this peptide / all reads for the bait, averaged over …; under chain 1 QYLQQATRQEPQGQEH [chain 1 V2Y], 0.000153 average fractional NGS count over selection days 2 and 3 (reads of this peptide / all reads for the bait, averaged over …; under chain 1 QPLQQATRQEPQGQEH [chain 1 V2P], 0.000487 average fractional NGS count over selection days 2 and 3 (reads of this peptide / all reads for the bait, averaged over ….
Consider chain 1 QNLQQATRQEPQGQEH [chain 1 V2N], for which the screen value is 0.00035 average fractional NGS count over selection days 2 and 3 (reads of this peptide / all reads for the bait, averaged over ….
chain 1 QVLQQATRQEPQGQAH [chain 1 E15A]: the screen value is 0.000599 average fractional NGS count over selection days 2 and 3 (reads of this peptide / all reads for the bait, averaged over ….
As for chain 1 QVLQQATRQEPQGQQH [chain 1 E15Q], the screen value is 0.000335 average fractional NGS count over selection days 2 and 3 (reads of this peptide / all reads for the bait, averaged over ….
Same read-out and setting: the figure for chain 1 QVLQQATRQEPQGQTH [chain 1 E15T] is 0.00184 average fractional NGS count over selection days 2 and 3 (reads of this peptide / all reads for the bait, averaged over ….
On the same count and under the same terms, under chain 1 QVLQQATRQEPQGQSH [chain 1 E15S] stands 0.00106 average fractional NGS count over selection days 2 and 3 (reads of this peptide / all reads for the bait, averaged over …; under chain 1 QVLQQATRQEPQGQYH [chain 1 E15Y], 0.0003 average fractional NGS count over selection days 2 and 3 (reads of this peptide / all reads for the bait, averaged over ….
The same measure, in the same setting: under chain 1 QVLQQATRQEPQGQNH [chain 1 E15N] stands 0.00037 average fractional NGS count over selection days 2 and 3 (reads of this peptide / all reads for the bait, averaged over ….
Take chain 1 QVLQQATRQEPQGQRH [chain 1 E15R]: the screen value was 0.00165 average fractional NGS count over selection days 2 and 3 (reads of this peptide / all reads for the bait, averaged over ….
As to chain 1 QVLQQATRQEPQGQFH [chain 1 E15F], the screen value is 0.000795 average fractional NGS count over selection days 2 and 3 (reads of this peptide / all reads for the bait, averaged over ….
For chain 1 QVLQQATRQEPQGQVH [chain 1 E15V], the screen value was 0.00435 average fractional NGS count over selection days 2 and 3 (reads of this peptide / all reads for the bait, averaged over ….
On the same count and under the same terms, the figure for chain 1 QVLQQATRQEPQGQMH [chain 1 E15M] is 0.000421 average fractional NGS count over selection days 2 and 3 (reads of this peptide / all reads for the bait, averaged over …; for chain 1 QVLQQATRQEPQGQLH [chain 1 E15L] it is 0.00245 average fractional NGS count over selection days 2 and 3 (reads of this peptide / all reads for the bait, averaged over …; for chain 1 QVLQQATAQEPQGQEH [chain 1 R8A] it is 0.000176 average fractional NGS count over selection days 2 and 3 (reads of this peptide / all reads for the bait, averaged over ….
For the variant chain 1 QVLQQATRQEPQGNEH [chain 1 Q14N], the screen value was 0.00223 average fractional NGS count over selection days 2 and 3 (reads of this peptide / all reads for the bait, averaged over ….
chain 1 QVLQQATRQEPQGSEH [chain 1 Q14S]: the screen value was 0.00613 average fractional NGS count over selection days 2 and 3 (reads of this peptide / all reads for the bait, averaged over ….
Same read-out and setting: under chain 1 QVLQQATRQEPQGTEH [chain 1 Q14T] stands 0.00286 average fractional NGS count over selection days 2 and 3 (reads of this peptide / all reads for the bait, averaged over ….
As for chain 1 QVLQQATRQEPQGREH [chain 1 Q14R], the screen value was 0.0014 average fractional NGS count over selection days 2 and 3 (reads of this peptide / all reads for the bait, averaged over ….
On the same count and under the same terms, under chain 1 QVLQQATRQEPQGLEH [chain 1 Q14L] stands 0.000371 average fractional NGS count over selection days 2 and 3 (reads of this peptide / all reads for the bait, averaged over …; under chain 1 QVLQQATRQEPQGWEH [chain 1 Q14W], 0.00254 average fractional NGS count over selection days 2 and 3 (reads of this peptide / all reads for the bait, averaged over ….
